Patent US20190298824A1, “ALBUMIN-BINDING IMMUNOMODULATORY COMPOSITIONS AND METHODS OF USE THEREOF” (THE UNITED STATES OF AMERICA, as represented by the …, priority 2016, published 2019)
Like-named read-outs stand apart in the source and are kept apart here. Where no end group is shown, it is not given here.

Key:
[1] = PET imaging of 64Cu-labeled AlbiAdpgk LN delivery; type: in vivo, FVB mice
Description: FIG. 25A-25D. Representative coronal and transverse of PET images (A) at 6 h post injection and quantification (B) of AlbiAdpgk, free Adpgk, and IFA(Adpgk) in IN and AX LNs of FVB mice (n=4/group). White arrows mark the LNs. (C) Quantified biodistribution of ^64Cu-labeled AlbiAdpgk in organs by γ-counting of excised organs at 48 h post injection. (D) % ID at injection sites quantified from decay-corrected PET scans.
(§1) Encouraged by the efficient delivery of peptide antigen, AlbiVax-based neoantigen delivery was exploited for personalized tumor immunotherapy. Adpgk, a neoantigen [ASMTN(R→M)ELM] (SEQ ID NO: 86) in MC38 (colon cancer) tumor cells^7 was used. The conjugation of hydrophilic MEB improved the water solubility of MEB-Adpgk (denoted as AlbiAdpgk).

[2] = water solubility of MEB-peptide conjugates; type: physicochemical
Text: (§2) Tyrosinase-related protein 2 (Trp2), a melanoma-associated subunit Ag, was used in this study. Trp2 with an N-terminal cysteine was conjugated with MEB to prepare albumin-binding MEB-Trp2 (denoted as AlbiTrp2). Hydrophilic MEB increased the water solubility of AlbiTrp2 relative to Trp2, and the resulting amphiphilic AlbiTrp2 self-assembled into nanoparticles in aqueous solution (FIG. 21A, 21B). […] To study LN-targeted Trp2 delivery, ^64Cu-labeled AlbiTrp2 was s.c. injected at the tail base of FVB mice for PET imaging (FIG. 22A).
as §1

[3] = PET imaging of 64Cu-labeled AlbiTrp2 LN delivery; type: in vivo, FVB mice; details: within 3 days
Text: FIG. 22A-22B. […] White arrows mark LNs.
as §2

albumin [4] = test: albumin binding of AlbiTrp2; details: R^2=0.88
Text: FIG. 21A-21C. TEM (A) and AFM (B) images of albumin/AlbiTrp2 nanocomplexes. The length-height graph in (B) was shown for the marked crossline in AFM image. (C) Albumin binding of AlbiTrp2 recovered the MEB fluorescence.
as §2

[5] = PET imaging of vaccine uptake in LNs of B16F10 tumor-bearing mice; type: in vivo, C57BL/6 mice
Text: FIG. 23A-23D. Representative PET images (A) and the corresponding quantification (B) showing the uptake of AlbiCpG (MEB-(HEG)2-CpG) in draining IN LNs and AX LNs of B16F10 tumor-bearing C57BL/6 mice. […] (C-D) Representative PET images (c) and the corresponding quantification (D) showing the uptake of AlbiTrp2 in LNs (IN and AX) of B16F10 tumor-bearing C57BL/6 mice. (Coro: coronal; trans: transverse; proj: projection; ID: injection dose; ID/g: ID/gram of organ weight)
For immunotherapy, C57BL/6 mice s.c. inoculated with 3×10^5 B16F10 cells were treated with AlbiCpG (2 nmole CpG equivalents)+AlbiTrp2 (20 μg) on days 6, 12, and 18 post inoculation. […] Furthermore, using a combination of multiple synergistic therapeutics can be used.

[6] = set-up: species or system BALB/c mice; details: mouse, in vivo
Text: FIGS. 8A-8E. Biodistribution and LN retention of CpG on day3 and day5, as determined by ROI signal quantification of PET images and γ-counting of isolated organs. (A) PET quantification of the % ID of different forms of CpG in major organs on Day3. (B) Detailed PET quantification of the % ID of different forms of CpG in IN and AX LNs on Day3. (C) γ-counting quantification of the % ID/g of different forms of CpG in LNs on Day3. (D) γ-counting quantification of the % ID/g of different forms of CpG in major organs on Day5. (E) γ-counting quantification of the % ID/g of different forms of CpG in LNs on Day5. Due to signal decay over 5 days, the radioactivity was too low to be detected by PET on day5, so the % injection dose on Day5 was not determined by PET. ID: injection dose; ID/g: injection dose/gram of tissue.
The blood had less than 4% ID/g for all tested formulations. On day 5 post injection, even though the radioactivity of ^64Cu-labeled vaccines was too low to be sensitively detected by PET, the radioactivity of ex vivo organs were sensitively measured to determine the biodistribution profile (FIGS. 8D-8E).

[7] = mouse, in vivo, sc
Description: (A) Structures, formulations, and radiolabeling strategies of CpG derivatives for PET-based screening. (B) Representative coronal PET images showing FVB mice at 6 h post s.c. injection of CpG derivatives at tail base. […] White arrow heads mark IN and AX LNs. (C) Amounts of CpG derivatives in IN and AX LNs quantified from 3D-reconstructed, decay-corrected PET images (n=4-8).
Coronal (coro), transverse (trans), and 3D projection (proj) of PET images showing efficient LN-targeted delivery and whole-body distribution of MH2C over 3 days post injection. White arrow heads mark IN and AX LNs. The scale bar for 3D proj was based on the maximal signal intensity in each image. (Injection dose: 120 μCi; ID: injection dose).
Mice were s.c. injected with ^64Cu-radiolabeled AlbiCpG, followed by PET imaging to reveal its 3D biodistribution in mice over 3 days (FIG. 5B). […] Based on PET, decay-corrected radioactivity in draining inguinal (IN) LNs, and axillary (AX) LNs. LNs were quantified as the percentage of injection dose (% ID) (FIG. 5C).

[8] = test system: BMDCs and RAW264.7 macrophages; test: ELISA of proinflammatory factors in culture medium (in vitro immunostimulation); type: cell-based
albumin [9] = test: method not named; recovery of MEB fluorescence on albumin binding (FIG. 21C)
Target sequence in this assay (P02768 25-609): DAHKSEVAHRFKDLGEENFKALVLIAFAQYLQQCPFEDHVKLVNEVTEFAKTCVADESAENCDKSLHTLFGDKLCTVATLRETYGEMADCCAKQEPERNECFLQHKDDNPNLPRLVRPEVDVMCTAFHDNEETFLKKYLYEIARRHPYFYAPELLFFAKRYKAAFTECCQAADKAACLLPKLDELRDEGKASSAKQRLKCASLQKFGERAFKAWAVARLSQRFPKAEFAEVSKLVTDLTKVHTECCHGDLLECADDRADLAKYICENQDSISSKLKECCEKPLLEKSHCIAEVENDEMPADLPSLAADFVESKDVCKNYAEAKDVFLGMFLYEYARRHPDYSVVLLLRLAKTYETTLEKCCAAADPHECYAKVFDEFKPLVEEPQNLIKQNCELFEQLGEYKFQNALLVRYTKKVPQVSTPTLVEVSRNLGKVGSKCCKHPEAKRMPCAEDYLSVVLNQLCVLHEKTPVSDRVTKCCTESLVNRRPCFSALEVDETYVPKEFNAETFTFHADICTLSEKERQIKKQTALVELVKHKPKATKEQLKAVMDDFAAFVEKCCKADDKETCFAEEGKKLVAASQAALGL

With “AlbiAdpgk: MEB conjugate of Adpgk neoantigen ASMTNMELM (SEQ ID NO: 86) of MC38 (also: MEB (albumin-binding) conjugate, site not given here)” the “amount trapped at the injection sites relative to IFA(Adpgk)” value ([1]; PET) was “Significantly less”, the “AUC in IN and AX LNs relative to Adpgk or IFA(Adpgk)” value ([1]; within 2 days) was 43 fold and the water solubility ([2]; relative to unconjugated peptide) was “improved”.
With “AlbiTrp2: Trp2 peptide with N-terminal cysteine conjugated with MEB (CSVYDFFVWL)” the “AUC in LNs relative to free Trp2” value [3] was 91 fold, the water solubility [2] was “increased” and the Kd (albumin [4]) was 790 nM. The “delivery to LNs in tumor-bearing mice” value [5] was “efficiently delivered to LNs except tumor draining axillary LNs”.
For CpG 1826, the “% ID/g in inguinal LNs” value [6] was 8.3±4.7 % ID/g, the “radioactivity density in axillary LNs” value [6] was 3.2±1.2 %/g and the “accumulation / retention in LNs” value [7] was “no apparent accumulation in any of the LNs”.
With “MEB-GpC: MEB conjugate of control GpC ODN (TCCATGAGCTTCCTGAGCTT, SEQ ID NO: 34) (DNA, backbone and methylation of C not given here; further chemistry not fully specified)” the “secretion of proinflammatory factors (ELISA)” value ([8]; BMDCs and RAW264.7 macrophages) was “did not stimulate these cells significantly more potently than the background” and the “immunostimulatory activity (ELISA of culture medium)” value ([8]; RAW264.7 macrophages, alone or premixed with HSA) was “inactive for immunostimulation”.
With “MEB-Trp2 (albumin-binding conjugate of maleimide-functionalized truncated Evans Blue with Trp2 peptide bearing an N-terminal cysteine) (from UniProt P29812 180-188)” the Kd (albumin [9]) was 790 nM.
